The values below come from patent US20260258115A1 (MAPP BIOPHARMACEUTICAL, published 2026).

Assay [1] addresses RSV prefusion F (preF), DS-Cav1 (Respiratory Syncytial Virus, UniProt P03420 26-513). The assay is described as follows: BLI, IgG on anti-human IgG sensor. For orientation: Biolayer interferometry detects binding as a change in optical thickness at a sensor tip.
In assay [2] the target is RSV F on RSV-A2 virus (Respiratory Syncytial Virus (RSV-A2), UniProt P03420 26-574). The assay is described as follows: cell-based or functional assay.
Assay [3] has as its target RSV postfusion F (postF), F ΔFP (Respiratory Syncytial Virus, UniProt P03420 26-513). As to the kind of experiment: BLI, IgG on anti-human IgG sensor, 100 nM antigen, 1:1 fit.
Assay [4] has as its target RSV F on RSV-A2 virus (Respiratory syncytial virus, RSV-A2, UniProt P03420 26-574). The assay is described as follows: cell-based or functional assay.
Assay [5] has as its target RSV postfusion F (postF), F ΔFP (Respiratory syncytial virus, UniProt P03420 26-513). As to the kind of experiment: BLI, IgG on anti-human IgG sensor, 100 nM antigen.
Assay [6] concerns the target RSV prefusion F (preF), DS-Cav1 (Respiratory syncytial virus, UniProt P03420 26-513). The assay is described as follows: BLI, IgG on anti-human IgG sensor.
Assay [7] has as its target RSV F on RSV subtype A virus (RSV-A2) (Respiratory Syncytial Virus, subtype A, …, UniProt P03420 26-574). The assay is described as follows: cell-based or functional assay.
For assay [8], the target named is RSV prefusion F (preF), DS-Cav1 stabilized trimer, subtype A (Respiratory Syncytial Virus, subtype A, UniProt P03420 26-513). As to the kind of experiment: BLI, IgG on anti-human IgG sensors, 100 nM antigen, apparent KD.
Assay [9] concerns the target RSV postfusion F (postF), F ΔFP trimer, subtype A (Respiratory Syncytial Virus, subtype A, UniProt P03420 26-513). The assay is described as follows: BLI, IgG on anti-human IgG sensors.

B1: ADI-41479 (antibody, V domains shown)
VH: QVQLVQSGAEVKKPGESLKISCKGSGYSFISYWIGWVRQMPGKGLEWMGIIYPADSDTRYSPSFQGQVTISVDKSISTAYLQWSSLKASDTGMYYCVRYGVGGTAPRYWGQGTTVTVSS
VL: NFMLTQPHSVSESPGKTVTISCTGSSGSIASNYVHWYQQRPGSAPTTVIYEDNQRPSGVPDRFSGSIDSSSNSASLTISGLKTEDEADYYCQSYDISNLWVFGGGTKLTVL
For the molecule B1, the binding result in assay [1] is “no binding”. Also, the “Neutralization IC50 (RSV subtype A)” value with RSV F on RSV-A2 virus [2] was determined as 0.46 µg/mL. For the same molecule, the Kd in assay [3] stood at 33.1 nM.

B2: ADI-41462 (antibody, V domains shown)
VH: QVQLQQWGAGLVKPSETLSLSCDVYGGSFSGYYWTWIRQPPGKGLEWIGEINHSGRTNYNPSLKNRVTISVDTSKKQFSLKLSSVTAADTAVYFCARAPYYDIVTDYNITTAYFYGMDVWGQGTTVTVSS
VL: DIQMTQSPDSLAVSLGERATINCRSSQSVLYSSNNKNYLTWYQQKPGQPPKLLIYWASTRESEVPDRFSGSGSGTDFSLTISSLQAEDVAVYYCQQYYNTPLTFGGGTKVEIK
Take B2: in assay [1], the binding result is given as “no binding”. In the assay with RSV F on RSV-A2 virus [2], the “Neutralization IC50 (RSV subtype A)” value was greater than 25 µg/mL. Moreover, the Kd in assay [3] is 1.54 nM.

B3: ADI-41477 (antibody, V domains shown)
VH: QVQLVQSGAEVKKPGASVRVSCKASGYPFISYYIHWVRQAPGQGLEWMGMINTNGGSTHYAQKFQGRVTMTRDTSTTTIYMELSRLKSEDTAYYFCARDNTETVLHGFWSGYGSYLDYWGQGTLVTVSS
VL: EIVLTQSPGTLSLSPGGRATLSCRASQSVTSSYLAWYQQRPGQAPRLLIYGASSRAAGIPDRFSGSGSGTDFTLTISRLEPEDFAVYYCQQYGSAPLTFGGGTKLEIK
notes: also called Ab 760; Antibody Number 760
On to B3, for which the binding result in [1] was “no binding”. The “Neutralization IC50 (RSV subtype A)” value with RSV F on RSV-A2 virus [2] was greater than 25 µg/mL. Besides, in [3], the Kd amounted to 0.505 nM.

B4: ADI-41458 (antibody, V domains shown)
VH: EVQLLESGSGLVKPSQTLSLTCAVSGDSLNSALYSWSWIRQPPGKGLEWIGYIYYSGSTYYNSSLKSRVTISIDRSKNQFSLNLNSVTAADTAVYYCASLQTGYSSGWFFDFWGPGTLVTVSS
VL: EIVLTQSPGTLSLSPGERATLSCRASQSVSRTYLTWYQQKPGQAPRLLIYGASNRATGIPDRFSGSGSGTDFTLTISRLEPEDFAVYYCQQYGSTPLFGQGTKVEIK
Take B4: in assay [1], the binding result is “no binding”. For the same molecule, the “Neutralization IC50 (RSV subtype A)” value with RSV F on RSV-A2 virus [2] was greater than 25 µg/mL. The molecule also came in with a Kd in [3] of 0.549 nM.

B5: ADI-41546 (antibody, V domains shown)
VH: QVQLVQSGAEVKKPGESLKISCKGSGYSFTNYWIGWVRQMPGKGLEWMGIIFSADSDTRYSPSFQGQVTISADKSISTAYLQWSSLKASDTAMYYCARQWGITGDAFDIWGQGTMVTVSS
VL: DIQVTQSPSFLSASVGDRVTITCRASQGISGYLAWYQQKPGKAPKLLIYAASTLQSGVPSRFSGSGSGTEFTLTISSLQPEDFATYYCQQLNSYPYTFGQGTKVEIK
In the case of B5, in [1], the binding result is reported as “no binding”. Further, in the assay with RSV F on RSV-A2 virus [2], the “Neutralization IC50 (RSV subtype A)” value was greater than 25 µg/mL. For the same molecule, the Kd in assay [3] was 1.08 nM.

B6: ADI-41805 (antibody, V domains shown)
VH: QVQLVQSGAEVKKPGESLKISCKASGYSFTSYWIAWVRQMPGKGLEWMGIIFPGDSDTRYSPSFQGQVTISADKSISTAYLQWSSLEASDTAMYYCAKSTTYYYYGLDVWGQGTTVTVSS
VL: QPVLTQPASVSGSPGQSITISCTGTSSDVGGYDYVSWYQQYPGKAPKLMIYEVSNRPLGVSNRFSGSRSGYTASLTISGLQAEDETNYYCSSYTSSRTWVFGGGTKLTVL
notes: also called Ab 914; Antibody Number 914
As to B6, the “Neutralization IC50 (RSV subtype A)” value with RSV F on RSV-A2 virus [4] is greater than 25 µg/mL. In [5], this molecule returned a Kd of 2 nM. The binding result in assay [6] is “no binding (tested: 100 nM antigen)”.

B7: ADI-41562 (antibody, V domains shown)
VH: QVQLVQSGAEVKKPGASVRVSCKTSGYAFSKYGISWVRQAPGQGLEWIGWISAYNENTHFSHKFLGRVTMTTDTSTGIAYMDLRSLKSDDTAVYYCARDWYSLGSDWYFGPMFDYWGQGTLVTVSS
VL: EIVLTQSPDTLSVSPGERATLSCRASQSVTTNLAWYQQKPGHAPRLLIYGASTRATGIPARFSGSGSGTEFTLTISSLQSEDFAIYYCQQYTNWPRTFGQGTKVEIK
notes: also called Ab 842; Antibody Number 842
Turning to B7, in the assay with RSV F on RSV-A2 virus [4], the “Neutralization IC50 (RSV subtype A)” value is greater than 25 µg/mL. The same molecule gave a Kd in assay [5] of 0.676 nM. For the same molecule, the binding result in [6] was “no binding (tested: 100 nM antigen)”.

B8: ADI-41544 (antibody, V domains shown)
VH: QVQLVQSGAEVKKPGESLKISCKGSGYSFTNYWIGWVRQMPGKGLEWMGIIFPADSDTRYSPSFQGQVTISADKSVSTAYLQWTSLKASDTAIYYCARLGVAAAGGYWGQGTLVTVSS
VL: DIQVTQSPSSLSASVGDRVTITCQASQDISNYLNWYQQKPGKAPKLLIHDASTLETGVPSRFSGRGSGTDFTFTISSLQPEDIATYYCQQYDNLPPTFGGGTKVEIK
notes: also called Ab 816; Antibody Number 816
On to B8, for which, in assay [1], the binding result was “no binding”. Also, in the assay with RSV F on RSV-A2 virus [2], the “Neutralization IC50 (RSV subtype A)” value is greater than 25 µg/mL. This molecule returned a Kd in [3] of 0.805 nM.

B9: ADI-41488 (antibody, V domains shown)
VH: EVQLVESGPGLVKPSETLSLTCTVSGGSINSDYWNWIRQTPGKGLEWIGYIFYSGNTNYNPSLKSRVTISIDTSKKKFSLQVTSVTAADTAVYYCARMGTLKFDFDNWGQGTLVTVSS
VL: QSALTQPRSVSGSPGQSVTIPCTGTSSDVGAYKYVSWYQQHPGKAPKLIIYDVTKRPSGVPNRFSGSKSGNTASLTISGLQAEDEADYYCCSYAGTHTYWVFGGGTKVTVL
notes: also called Ab 769; Antibody Number 769
As to B9, the binding result in assay [1] was “no binding”. The “Neutralization IC50 (RSV subtype A)” value with RSV F on RSV-A2 virus [2] was greater than 25 µg/mL. The molecule also came in with a Kd in assay [3] of 0.605 nM.

B10: ADI-41690 (antibody, V domains shown)
VH: QVQLVQSGAEVKKPGESLRISCKGSGYSFSSHWIGWVRQKPGKGLEWMGIIYPGDSDTRYSPSFQGHVTISADKSISTAYLRWSSLKASDTAIYYCAKRMVGDYYGMNLWGQGTTVTVSS
VL: EIVMTQSPSSLSASVGDRVTITCQASQDISNRLNWYQQKPGKAPKLLIYDASNLETGVPSRFSGSGSGTDFTFTISSLQPEDIATYFCQQYDYLLWFTFGPGTKVDIK
notes: also called Ab 893; Antibody Number 893
On to B10, for which the “Neutralization IC50 (RSV subtype A)” value with RSV F on RSV-A2 virus [4] is greater than 25 µg/mL. In addition, in [5], the Kd came out at 8.78 nM. The binding result in assay [6] is recorded as “no binding (tested: 100 nM antigen)”.

B11: ADI-41507 (antibody, V domains shown)
VH: QVTLKESGPTLVKPTQTLRLTCTFSGFSLNVISGVGVGWIRQPPGKALEWLALIYWDDDKRYSPSLKSRLTIAKDTSKNQVVLTMTNMDPVDTATYYCAHKGGSIEAAVGFDYWGQGTLVTVSS
VL: QSVLTQPPSVSGAPGQRVIISCTGSSSNIGAGFAVHWYQQLPGTAPKLLIYANTNRPSGVPDRFSGSKSGTSASLAITGLQAEDEADYYCQSYDTSLSGFYVFGTGTKLTVL
For the molecule B11, the binding result in [1] is given as “no binding”. Moreover, the “Neutralization IC50 (RSV subtype A)” value with RSV F on RSV-A2 virus [2] was greater than 25 µg/mL. Further, the Kd in assay [3] worked out at 140 nM.

B12: ADI-43642 (antibody, V domains shown)
VH: EVQLLESGGGLVKPGGSLRLSCAASGFTFSSYSMNWVRQAPGKGLEWVSSISSSSSYIYYADSVKGRFTISRDNAKNSLYLQMNSLRAEDTAVYYCARDGADSSYYYYMDVWGKGTTVTVSS
VL: QAVVTQPPSVSGAPGQRVTISCTGSSSNIGAGYDVHWYQQLPGTAPKLLIYGNSNRPSGVPDRFSGSKSGTSASLAITGLQAEDEADYYCQSYDSSLSGSVFGGGTKLTVL
notes: also called Ab 947; Antibody Number 947
As to B12, the “Neutralization IC50 (RSV subtype A)” value in assay [7] is greater than 25 µg/mL. Further, the Kd in assay [8] was 43.2 nM. In [9], the binding result was “no binding (tested: 100 nM antigen)”.

B13: ADI-41525 (antibody, V domains shown)
VH: QVQLVQSGAEMKKPGSSVKVSCKASGRTFKYFALNWMRRAPGHGLEWIGGDIPISGSTNYAQKFQGRVTITADESASTAYMEVSRLRSDDTAVYYCASLHYDVSTGFSDAFDIWGQGTMVTVSS
VL: QSVLTQPASVSGSPGQSITISCTGTSSDVGAYNYVSWYQHHPGKAPKLMIFDVSNRPSGVSNRFSGSKSGNTASLTISGLQAEDEADYYCSSYRSTFSYVFGTGTKVTVL
notes: also called Ab 797; Antibody Number 797
Turning to B13, in assay [1], the binding result was “no binding”. Further, the “Neutralization IC50 (RSV subtype A)” value with RSV F on RSV-A2 virus [2] is greater than 25 µg/mL. The Kd in assay [3] came to 0.327 nM.

B14: ADI-41556 (antibody, V domains shown)
VH: EVQLLESGGGLVKPGGSLRLSCAASGFSFSSYSMHWVRQAPGKGLEWVSSISSSSTYIYYADSVKGRFTISRDNAKTSLFLQMNSLRAEDTAVYYCARDPYSSGWYWDWGQGTTVTVSS
VL: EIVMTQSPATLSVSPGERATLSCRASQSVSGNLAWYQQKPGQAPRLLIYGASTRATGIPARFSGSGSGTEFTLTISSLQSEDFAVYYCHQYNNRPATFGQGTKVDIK
In the case of B14, in the assay with RSV F on RSV-A2 virus [4], the “Neutralization IC50 (RSV subtype A)” value was greater than 25 µg/mL. In addition, the Kd in [5] is 2.28 nM. Besides, the binding result in [6] is “no binding (tested: 100 nM antigen)”.

B15: ADI-41465 (antibody, V domains shown)
VH: QVQLVQSGGGVVQPGRSLRLSCAASGFTFTSYDMHWVRQAPGKGLEWVAIISHDGSKQFYADSVKGRFTISRDNSKNTLYLQMNSLRPEDTAMYYCAKDTPSWGLLAEFFRHWGQGTLVTVSS
VL: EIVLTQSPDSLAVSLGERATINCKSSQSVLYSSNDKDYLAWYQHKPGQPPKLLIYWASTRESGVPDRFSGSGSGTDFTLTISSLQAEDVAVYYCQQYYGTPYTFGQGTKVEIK
Take B15: the binding result in assay [1] is recorded as “no binding”. Further, in the assay with RSV F on RSV-A2 virus [2], the “Neutralization IC50 (RSV subtype A)” value is greater than 25 µg/mL. This molecule registered a Kd in assay [3] of 1.73 nM.

B16: ADI-41553 (antibody, V domains shown)
VH: EVQLVESETEVKKPGASVKVSCKASGYTFTKYGISWVRQAPGQGLEWMGWISAYNGNTMYPHKLLGRVTMTTDTSTSTAYMELRSLRSDDTAVYYCARDQTYYDFWSGYYTYWGQGTLVTVSS
VL: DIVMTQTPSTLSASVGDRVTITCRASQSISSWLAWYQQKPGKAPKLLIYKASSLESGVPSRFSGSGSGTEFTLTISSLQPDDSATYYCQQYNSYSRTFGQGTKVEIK
notes: also called Ab 835; Antibody Number 835
With B16, in the assay with RSV F on RSV-A2 virus [4], the “Neutralization IC50 (RSV subtype A)” value was greater than 25 µg/mL. The Kd in assay [5] is 0.804 nM. For the same molecule, the binding result in assay [6] was “no binding (tested: 100 nM antigen)”.
